For 1 protein, Km results are on record in paper PMC4661009, “Synthesis of α,β-unsaturated esters via a chemo-enzymatic chain elongation approach by combining carboxylic acid reduction and Wittig reaction” (Beilstein Journal of Organic Chemistry, 2015).

Substrate in the series: O=C(O)c1ccccc1
Kind of series: steady-state kinetics of carboxylic acid reduction. Type of series: biochemical, Mycolicibacterium neoaurum. The conditions noted are these: His-tagged CAR, holo form after PPTase/CoA treatment; ATP, NADPH, Mg2+ as cofactors; assay pH and temperature for Km not in main text.

B1: Mycobacterium CAR (Mycolicibacterium neoaurum VKM Ac-1815D) (protein)
chain: MFAENLDDQQRLADLYATDPEFAAAAPDPAIADAVAAPEMRLPEIIRTVLTGYAERPALGSRAVQLVTDEATGRTRAELLGHFETITYGQLWDRVRAVTNAWSDTVRPGDRVAILGFGSVDFTVIDIALTQLGAVSVPLQTSATAAALAPIVAETEPALIASDVNHLDDAVTLALESGVATVVVFDQNPAVDDDREAIAAATARLDGQTLATLDEVIAAGAERPDVAIPAQEGDPLSLLIYTSGSTGAPKGAMYPQGKVADIWRPAINSHWDARQGHVPAIVLSFMPMSHVMGRGILYASLASGGVVNFAARADLSTLLEDLALTRPTQLNFVPRVWDMLFQDYQSRAAHGGSEADILADMRTNLLGGRYVSALTGSAPISPELKAWVERLLDLHLVEGYGSTEAGAVFVDGQISRPPVLEYKLVDVPELGYHSTDVPHPRGELLIRSEQLFPGYYKRPEVTASVFDEDGFYRTGDIVAELGPDQVAYIDRRNNVLKLSQGEFVTVSKLEAVFNTAPLVHQIYIYGNSARPYLLAVVVPTDPAATKAEIADALKAAARKADLQSYELPRDFLVETQEFTTENGLLTGIKKLAWPKLKERYGAELEQLYTDLADGQAGELQALRATGADAPVLETVGRAAVALLGAASSDIAPDVHFTDLGGDSLSALTFGNLLADIFDVEVPVSVIVSPTADLASIAAHIETQRSGSGLRPSFASVHGKDATVARAADLTLDKFIDAETLAAAGDLAGPATNVRTVLLTGATGFLGRYLALEWLERMNLVDGKVIALVRARSDAEARARLDATFDTGDPKLVAHYRELADKHLEVLAGDKGEHDLGLDRQTWQRLADTVDLIVDPAALVNHVLPYNELFGPNALGTAELIRVALTTRIKPFVYVSTIGVGAGIEPGRFVEDADIREISATRVLDDSYANGYGASKWAGEVLLREAHEQFGLPVSVFRCDMILADTSYAGQLNLPDMFTRMMLSLVATGIAPKSFNQLDAQGNRQRSHYDGLPVEFIAEAISTLGADVTDGFETYHVMNPHDDGLGLDEFVDWLVDAGHPIRRIDDYQAWFEQFGATLRTLPDRQRQASLLPLLHNYTTPGQPVNGAMAPTDVFRTAVQEAKIGPDKDIPHVSRDVIVKYVTDLQLLGLL
notes: full-length gene in pET30b(+) (NdeI/XhoI), His-tagged, E. coli BL21(DE3), tag kept; monomer, theoretical 125 kDa; holo form made with Nocardia PPTase (ABI83656.1) and CoA
Regarding B1, the Michaelis-Menten constant (Km) was 1.75 ± 0.16 mM.
